PMC9143278

Biological target: human and murine IL-1R1 on HEK-Blue IL-1R cells (human and murine)

Molecule | SEAP reporter (620 nm) in HEK-Blue IL-1R cells after overnight incubation; EC50 of a 3-fold dilution series from 100 ng/mL | SEAP reporter (620 nm) in HEK-Blue IL-1R cells after overnight incubation; EC50, positive control
IL-1β(N32G)-Tag (ligand) | 0.89 | 
IL-1β(Q15G)-Tag (ligand) | 5.8 | 
IL-1β(R11G)-Tag (ligand) | 2.7 | 
IL-1β-Tag (His-TEV-muIL-1β-Tag, wild type) (from UniProt P10749 118-269) (ligand) | 0.75 | 

Other lines, results leading:

SEAP reporter (620 nm) in HEK-Blue IL-1R cells after overnight incubation; EC50 of a 3-fold dilution series from 100 ng/mL | SEAP reporter (620 nm) in HEK-Blue IL-1R cells after overnight incubation; EC50, positive control | Molecule
2.4 |  | IL-1β(H30G)-Tag (ligand)
 | 0.25 | huIL-1β (commercial recombinant human IL-1β) (from UniProt P01584 117-269) (ligand)
 | 0.21 | muIL-1β (commercial recombinant murine IL-1β) (ligand) VPIRQLHYRLRDEQQKSLVLSDPYELKALHLNGQNINQQVIFSMSFVQGEPSNDKIPVALGLKGKNLYLSCVMKDGTPTLQLESVDPKQYPKKKMEKRFVFNKIEVKSKVEFESAEFPNWYISTSQAEHKPVFLGNNSGQDIIDFTMESVSS
